Measured values taken from article PMC5708760.

Target: flag-tagged ErbB2 (Xenopus laevis, wild type) (Xenopus laevis)

Substance: recombinant EC1-3 (bacEC) (domain or fragment)
- phospho-Akt (S473) by western blot, normalised to GFP-myc, in ErbB2-transfected, serum-starved Hek293T cells treated with 10 ng/mL bacEC for 1 to 60 minutes: 20%
